Reference: patent US20190160181A1 (MERSANA THERAPEUTICS, published 2019)
“And” between values parts separate entries of the source, which are not always exact repeats. Equal values may be shown once.

Experiments:
[1] = molecular target: T1, Human cyclized NaPi2b peptide (human); experiment: ELISA on plate-coated human cyclized NaPi2b peptide, one site-specific binding fit
T1 construct: also called Human NaPi2b peptide
Method: Human cyclized NaPi2b peptide were generated and lyophilized covering the amino acids identified in the XMT-1535 epitope (New England Peptide, Gardner, Mass.). For the ELISA, the lyophilized NaPi2b peptide was reconstituted in DMSO. Human NaPi2b peptide was used to coat 96-Well high binding clear ELISA plates (Corning, 3369) at 1 μg/mL in sodium carbonate buffer, pH 9 to a total volume of 100 μl per well. After a 2-hour incubation, plates were washed 4 times with 100 μl per well TBS-Tween 20, blocked with 3% BSA in TBS-Tween 20 (100 μl per well) for 1 hour, and washed again. Test articles, MERS67 (Lot U0859BH and Lot U5569BL), XMT-1535, and the non-binding control (trastuzumab) were added to the wells at a dose concentration range from 100 nM to 0.002 nM using an […] 3-fold serial dilution in TBS-Tween 20 buffer at 100 μl per well. Plates were incubated for 1 hour with rocking then washed as above. […] The Optical Density (O.D.) was measured at 450 nm with a SpectraMax M5 microplate reader (Molecular Devices, Sunnyvale, Calif.). The O.D. for each treatment was graphed, and Kd calculated for each antibody with GraphPad Prism software (GraphPad Software Inc., La Jolla, Calif.) by non-linear regression using the one site-specific binding model.

human NaPi2b = molecular target: T2, human NaPi2b (human, UniProt O95436 1-690); experiment: immunohistochemistry, human lung tumor tissue microarray
T2 construct: whole, on cells; read as O95436; Detected by immunohistochemistry in tissue sections; also called SLC34A2; NaPiIIb
T2 sequence (looked up): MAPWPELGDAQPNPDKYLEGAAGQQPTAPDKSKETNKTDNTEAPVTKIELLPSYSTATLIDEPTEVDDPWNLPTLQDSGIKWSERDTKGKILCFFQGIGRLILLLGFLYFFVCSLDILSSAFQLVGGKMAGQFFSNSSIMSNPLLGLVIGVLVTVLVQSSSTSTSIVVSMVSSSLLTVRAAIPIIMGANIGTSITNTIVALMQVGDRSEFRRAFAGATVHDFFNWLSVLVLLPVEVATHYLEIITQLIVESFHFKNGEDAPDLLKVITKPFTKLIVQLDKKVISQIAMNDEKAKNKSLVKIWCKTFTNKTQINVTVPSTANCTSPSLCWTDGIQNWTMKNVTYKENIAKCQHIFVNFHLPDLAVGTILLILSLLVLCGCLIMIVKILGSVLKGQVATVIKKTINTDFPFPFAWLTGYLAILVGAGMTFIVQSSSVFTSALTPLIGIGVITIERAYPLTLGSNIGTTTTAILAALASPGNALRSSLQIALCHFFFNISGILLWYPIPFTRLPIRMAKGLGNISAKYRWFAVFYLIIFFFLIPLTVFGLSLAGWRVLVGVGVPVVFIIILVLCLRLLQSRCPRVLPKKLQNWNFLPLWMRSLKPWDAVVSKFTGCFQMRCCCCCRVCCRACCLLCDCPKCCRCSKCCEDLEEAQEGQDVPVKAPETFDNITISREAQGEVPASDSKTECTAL
Method: An immunohistochemical assay for MERS67 was established on a Leica BondRx Instrument. The assay was performed on tissue microarrays (TMA), including NSCLC and small cell lung cancer (SCLC) cell line arrays, and a NSCLC human tumor array. Tumors in the NSCLC array had previously been classified based on morphologic features only. All arrays were scored based on the H-score method.
To characterize the primary tumors further, the tumor TMA was stained with TTF-1 and p40, markers of ACA and squamous cell carcinoma (SCC), respectively. Results of this staining were compared to MERS67 staining patterns. H-Scores in the NSCLC cell line TMA ranged from 0-260, and from 0-100 in the small cell lung carcinoma (SCLC) TMA. Within the tissue microarray, 99 individual cases were evaluable. By morphologic classification 63 cases were SCC, and 23 cases were ACA. Using an arbitrary cut point of H=50, there was a statistically significant difference in the number of NaPi2b positive ACA cases (19/23) vs SCC (3/63). FIG. 13 is a box plot of the H scores derived from MERS67 IHC comparing SCC vs ACA, when these tumors were classified by morphology only.

B1: MERS67 (antibody, rabbit IgG1, V domains shown)
VH: QVQLVQSGAEVVKPGASVKMSCKASGYTFTGYNIHWVKQAPGQGLEWIGAIYPGNGDTSYKQKFRGRATLTADTSTSTVYMELSSLRSEDSAVYYCARGETARATFAYWGQGTLVTVSS
VL: DIQMTQSPSSLSASVGDRVTITCSASQDIGNFLNWYQQKPGKTVKVLIYYTSSLYSGVPSRFSGSGSGTDYTLTISSLQPEDFATYYCQQYSKLPLTFGQGTKLELKR
notes: XMT-1535 variable regions joined to the rabbit IgG1 constant region and the rabbit Ig kappa-b4 C region; Two lots tested: U0859BH (one-step purification) and U5696BL (two-step purification); also called MER67; chimeric NaPi2b antibody
Kd [1]: 256 pM and 104 pM
binding result (human NaPi2b): binds
